Assay results from patent US5733730, “Telomere repeat binding factor and diagnostic and therapeutic use thereof” (The Rockefeller University).

T1: TRF purified from HeLa nuclear extract (Homo sapiens, UniProt P54274 SEQ:1-439)
T1 chain: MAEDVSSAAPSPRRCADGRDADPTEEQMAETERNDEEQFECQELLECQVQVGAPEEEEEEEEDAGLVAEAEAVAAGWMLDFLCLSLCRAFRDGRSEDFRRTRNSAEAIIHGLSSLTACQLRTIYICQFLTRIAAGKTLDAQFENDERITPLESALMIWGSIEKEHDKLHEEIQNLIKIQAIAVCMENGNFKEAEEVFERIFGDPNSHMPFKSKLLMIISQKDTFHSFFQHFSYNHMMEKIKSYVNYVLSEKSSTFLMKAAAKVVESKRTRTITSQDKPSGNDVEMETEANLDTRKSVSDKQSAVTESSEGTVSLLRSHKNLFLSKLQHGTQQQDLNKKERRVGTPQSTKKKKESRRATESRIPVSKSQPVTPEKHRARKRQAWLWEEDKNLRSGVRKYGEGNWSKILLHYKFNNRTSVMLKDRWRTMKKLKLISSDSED

T2: TRF (MTRF12, full length) (Mus musculus, UniProt P70371 P70371:1-421)
T2 sequence: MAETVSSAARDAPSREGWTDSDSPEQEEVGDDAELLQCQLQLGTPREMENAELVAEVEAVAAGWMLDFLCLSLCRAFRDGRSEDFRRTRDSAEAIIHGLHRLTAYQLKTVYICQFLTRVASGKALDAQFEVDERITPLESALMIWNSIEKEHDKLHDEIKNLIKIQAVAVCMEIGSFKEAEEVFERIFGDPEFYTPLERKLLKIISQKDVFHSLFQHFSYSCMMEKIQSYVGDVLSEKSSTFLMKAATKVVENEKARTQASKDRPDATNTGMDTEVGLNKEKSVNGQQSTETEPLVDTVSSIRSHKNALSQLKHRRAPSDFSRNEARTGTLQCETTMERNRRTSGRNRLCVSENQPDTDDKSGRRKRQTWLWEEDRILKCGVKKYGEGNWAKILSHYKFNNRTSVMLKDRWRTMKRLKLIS


Experiments:
[1] = molecular target: T1, TRF purified from HeLa nuclear extract; experiment: EMSA; column fractions in 100 mM KCl, 20 mM HEPES, 3 mM MgCl2, 20% glycerol, 0.1% NP-40; binding lost when highly purified, rescued by casein; conditions: label: radiolabelled
Protocol: TRF was isolated from a total of 9.2×10^11 HeLa Cells, equivalent to 940 liters of culture (in Joklik's Media, supplemented with bovine calf serum, 2 mM L-glutamine, 0.1 mM non-essential amino acids, and penicillin/streptomycin). A nuclear extract containing 4 grams of protein and about 650 pmol of TRF (1 pmol TRF is defined as the amount of protein required to complex 1 pmol of labelled probe), as determined by quantitation using a PhosphoImager, was obtained from the cells and the soluble fraction was then purified over a series of ion exchange and affinity columns, as noted above. For each column, the sample was loaded in buffer containing 100 mM KCl and the flow-through was reloaded. The columns were developed in buffer with increasing potassium chloride salt concentration, with a final stripping of the column with 1M salt. All fractions were dialyzed to 100 mM KCl, 20 mM HEPES, 3 mM MgCl_2, 20% glycerol, and 0.1% NP-40 (nonidet-P40). Activity was determined by gel shift assay using a probe of 145 bp fragment containing (TTAGGG)_2 having the following sequence (SEQ D NO:21): […]

[2] = molecular target: T2, TRF (MTRF12, full length); experiment: EMSA; reticulocyte lysate; complex co-migrates with J558 mouse TRF; conditions: label: radiolabelled
From the text: The mouse cDNA (MTRF12) contained its own initiator codon and was transcribed and translated without further modification using the T3 promoter in its pBluescript vector. Similar to the human cDNA, a ~60 kD protein was synthesized that bound TTAGGG repeats but not TYGGGG or TTAGGC repeats (FIG. 6).

[3] = molecular target: TRF (HTRF4.1, TRF1) partial ORF from N-terminal XhoI site to stop (Homo sapiens, UniProt P54274 SEQ:45-439); experiment: EMSA; reticulocyte lysate; no complex without TRF cDNA; text of Example 4 prints probe as (TTAGGG)2; conditions: tags: His6 (pET28b, Novagen) N-terminal fusion; label: radiolabelled
From the text: Proof that the cDNAs encode TRF activity. One of the human cDNAs (HTRF4.1) was used to construct a fusion protein in which part of the TRF open reading frame from the N-terminal Xho I site to the natural termination codon at the Hind III site was inserted into the pET28b His6Tag expression vector from Novagen (Madison, Wis.). This new, chimeric open reading frame contained an initiator ATG codon with "Kozak rules" environment at its 5' end as well as an T7 RNA polymerase promoter sequence upstream. This construct was used for in vitro coupled transcription/translation (using a kit from Promega) resulting in synthetic protein (labelled with […]) with an apparent molecular weight (MW) of 60 kD. The in vitro synthesized protein was used in a gel-shift assay with a double stranded (TTAGGG)_2 repeat probe and shown to form a complex that migrates close to the HeLa TRF gel-shift complex.

| Binder | binding result [1] | binding result [2] | binding result [3] |
| --- | --- | --- | --- |
| 145 bp TTAGGG repeat gel-shift probe (dsDNA) DNA 1: GTACCCGGGGATCGTGACTCTAGAGGGGCCCTAACCCTAACCCTAACCCTAACCCTAACCCTAACCCTAACCCTAACCCTAACCCTAACCCTAACCCTAACCCTAACCCGGGTCGAATTCGATCTCTAGAGTCGACCTGCAGGCATGC DNA 2: GCATGCCTGCAGGTCGACTCTAGAGATCGAATTCGACCCGGGTTAGGGTTAGGGTTAGGGTTAGGGTTAGGGTTAGGGTTAGGGTTAGGGTTAGGGTTAGGGTTAGGGTTAGGGTTAGGGCCCCTCTAGAGTCACGATCCCCGGGTAC | binds |  |  |
| (TTAGGG)12 restriction fragment probe (dsDNA) DNA 1: TTAGGGTTAGGGTTAGGGTTAGGGTTAGGGTTAGGGTTAGGGTTAGGGTTAGGGTTAGGGTTAGGGTTAGGG DNA 2: CCCTAACCCTAACCCTAACCCTAACCCTAACCCTAACCCTAACCCTAACCCTAACCCTAACCCTAACCCTAA |  | binds | binds |
